This passage reports reduction efficiency by CumDO-F relative to WT CumDO-O (A457) and reduction efficiency of the Rieske cluster of CumDO-O by CumDO-F (initial rate of decrease of A457; purified CumDO-R, CumDO-F, CumDO-O and NADH) results from publication PMC9361823.

Assay [1] addresses CumDO-O α1K117A (Pseudomonas fluorescens IP01) (UniProt Q51743).
Assay [2] has as its target CumDO-O β1R65A (Pseudomonas fluorescens IP01) (UniProt Q51743).
The target in assay [3] is CumDO-O α1K141A β1R65A (Pseudomonas fluorescens IP01) (UniProt Q51743).
Assay [4] addresses CumDO-O α1K117A β1R65A (Pseudomonas fluorescens IP01) (UniProt Q51743).
The target of assay [5] is CumDO-O α1K117A α1K141A (Pseudomonas fluorescens IP01) (UniProt Q51743).
Assay [6] has as its target CumDO-O α1K141A β2W100A (Pseudomonas fluorescens IP01) (UniProt Q51743).
For assay [7], the target named is CumDO-O α1K117A β2W100A (Pseudomonas fluorescens IP01) (UniProt Q51743).
Assay [8] deals with CumDO-O β1R65A β2W100A (Pseudomonas fluorescens IP01) (UniProt Q51743).
The target of assay [9] is α3β3-type oxygenase component of cumene dioxygenase (CumDO-O), wild type (Pseudomonas fluorescens IP01) (UniProt Q51743).

A value given as a limit tells only on which side of the number the result lay.

Sequence of Rieske-type ferredoxin of cumene dioxygenase (CumDO-F) (Q51746 entry or part of it): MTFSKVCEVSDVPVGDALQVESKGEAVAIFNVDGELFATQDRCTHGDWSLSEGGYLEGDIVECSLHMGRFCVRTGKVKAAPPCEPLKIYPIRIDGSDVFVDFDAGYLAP

Turning to “Rieske-type ferredoxin of cumene dioxygenase (CumDO-F) (from UniProt Q51746 1-109) (natural protein)”, the reduction efficiency by CumDO-F relative to WT CumDO-O (A457) in [1] was 21%; in assay [2], 46%; in assay [3] it was less than 20%; in assay [4], less than 20%; in [5] it was less than 20%; in assay [6], 69%. Also, the reduction efficiency by CumDO-F relative to WT CumDO-O (A457) in assay [7] and in [8] was less than 20% throughout. In [9], the reduction efficiency of the Rieske cluster of CumDO-O by CumDO-F (initial rate of decrease of A457; purified CumDO-R, CumDO-F, CumDO-O and NADH) was 100%.
